In patent US20030044847A1, “Methods for anlyzing interactions between proteins in live and intact cells” (priority 2001, published 2003):
Values belong to the molecule of their own block, whether it stands above or below them.

What was measured:
[1] = system: Chinese hamster ovary (CHO) q3 cells; experiment: MHC class I antigen induction in CHO q3 cells transfected with human receptor chains; assay type: cell-based; details: CHO q3 cells with human receptor chains with or without GFP and EBFP; FIG. 3
Excerpt: The human receptor chains (IFN-γR1 and FL-IFN-γR2) without fluorescent proteins (left panel) and those with the fluorescent proteins (IFN-γR1/EBFP and FL-IFN-γR2/GFP) (right panel) were transfected into Chinese hamster ovary (CHO) q3 cells and MHC class I antigen induction measured in response to hamster and human IFN-γ. In the absence of the human receptor chains, Hu-IFN-γ has no effect on CHO cells (78, 87, 98). […] The CHO q3 cells were derived as follows. Hamster UCH-12 cells containing a stable translocation of human chromosome 3q were obtained from Carol Jones and David Patterson. UCH-12 cells were transfected with plasmid pJYI50R1.1 that encodes the intact HLAB7 gene (101) and the resulting cells designated q3. […] The stably transfected population of q3 cells was grown in F12 media supplemented with 10% FBS without selecting antibiotics. […] After three rounds of selection, individual clones were isolated by limiting dilution and amplified. […] MHC class I antigen induction in response to IFN-γ was performed as described (93).
Stable transformants were made in the CHO-derived cell line q3 by the Lipofectin method and limiting dilution clonal isolation.
Images, Spectra and Activity of human IFN-γR2/GFP and IFN-γR1/BFP transfected into COS-1 cells. […]

CHO cells = details: absence of the human receptor chains; cited from earlier work
[2] = system: IFN-γR2/EBFP and IFN-γR2/GFP; experiment: FRET between IFN-γR2/EBFP and IFN-γR2/GFP in COS-1 cells without IFN-γR1 chain; assay type: cell-based, human; details: cells expressing only IFN-γR2 chains, no IFN-γR1 chain; FIG. 9 left panels
Excerpt: (§1) FIG. 9 Fluorescence transfer between the FL-IFN-γR2/GFP and FL-IFN-γR2/EBFP chains. Both FL-IFN-γR2/GFP and FL-IFN-γR2/EBFP were transfected into COS-1 cells in the absence (left panels) or presence (right panels) of the unlabeled IFN-γR1 chain. Spectra were taken in the presence and absence of IFN-γ.
(§2) Construction of Vectors to Measure FRET in Cells and Transfections. As noted above, green and blue fluorescent proteins (GFP and BFP) were discovered and developed by a number of groups that enabled these fluorescent protein to be seen and localized in cells; and several groups have begun to use FRET to study the interactions of proteins in cells. In our studies, the IFN-γ receptor complex (FIG. 1) was used as the model system to evaluate the ability of FRET to provide insight into the structure of the receptor and to determine the molecular dynamics after attachment of the ligand IFN-γ to the receptor. In order to carry out these studies, IFN-γR1 and IFN-γR2 chains with BFP (or EBFP) and GFP fused to the carboxyl termini of their intracellular domains were constructed (FIG. 2, top). By fusing the DNA encoding the blue fluorescent protein (BFP) to the DNA encoding the carboxyl terminus of the IFN-γR1 chain and by fusing the DNA encoding GFP to the DNA encoding the carboxyl terminus of the IFN-γR2 chain, the cells produce IFN-γR11/BFP and IFN-γR2/GFP. […]

[3] = target: T1, IFN-γR2/EBFP, IFN-γR2/GFP and IFN-γR1 chains (Homo sapiens, UniProt P15260); experiment: FRET between IFN-γR2/EBFP and IFN-γR2/GFP in COS-1 cells with unlabeled IFN-γR1 chain; assay type: cell-based; details: cells expressing IFN-γR2/EBFP, FIG. 9 right panel
T1 construct: expressed in transfected cells; host or cells: COS-1
T1 sequence (P15260 18-489): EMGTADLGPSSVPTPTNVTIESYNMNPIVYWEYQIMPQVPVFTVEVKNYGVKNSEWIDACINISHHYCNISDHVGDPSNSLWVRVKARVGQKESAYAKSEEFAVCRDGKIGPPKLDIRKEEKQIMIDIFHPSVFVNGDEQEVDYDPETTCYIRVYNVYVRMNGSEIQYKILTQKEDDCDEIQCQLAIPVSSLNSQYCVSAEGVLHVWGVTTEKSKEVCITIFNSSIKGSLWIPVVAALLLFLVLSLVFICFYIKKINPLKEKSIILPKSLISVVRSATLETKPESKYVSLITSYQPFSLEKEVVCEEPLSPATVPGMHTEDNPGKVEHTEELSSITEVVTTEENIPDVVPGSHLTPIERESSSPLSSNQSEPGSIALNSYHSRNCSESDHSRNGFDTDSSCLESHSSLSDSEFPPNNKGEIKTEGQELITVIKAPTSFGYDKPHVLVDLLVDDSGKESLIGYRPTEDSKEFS
Excerpt: as §1, §2

[4] = target: T2, IFN-γR1/EBFP and IL-10R2/GFP (Homo sapiens, UniProt P15260); experiment: FRET between mismatched receptor pair IFN-γR1/EBFP and IL-10R2/GFP in COS-1 cells; assay type: cell-based; details: two-photon excitation at 760 nm; FIG. 7
T2 construct: expressed in transfected cells; host or cells: COS-1
T2 sequence (P15260 18-489): T1 sequence (P15260 18-489)
Excerpt: as §2, with “IFN-γR2/GFP. In this way, the BFP and GFP were fused to the intracellular domains of IFN-γR1 and IFN-γR2, respectively (FIG. 2), to monitor interactions among these two receptor chains in intact cells-with and-without IFN-γ treatment.” for “IFN-γR2/GFP.”

[5] = target: T3, IFN-γ receptor complex (IFN-γR1/EBFP and IFN-γR2/GFP) (Homo sapiens, UniProt P15260); experiment: FRET between IFN-γR1/BFP (EBFP) and IFN-γR2/GFP (matched pair) in single live COS-1 cells; assay type: cell-based
T3 construct: EBFP (enhanced blue fluorescent protein); expressed in transfected cells; host or cells: COS-1
T3 sequence (P15260 18-489): T1 sequence (P15260 18-489)
Excerpt: A mammalian expression vector was used to express human interferon γ receptor chains one and two (IFN-γR1 and IFN-γR2) with blue- and green-fluorescent proteins (BFP and GFP) fused to the carboxyl terminus of the chains, respectively. A tandem vector was used so that both chains were expressed in COS-1 cells under the control of the EF-1 promoter. A single cell expressing both of these chains was used to carry out the experiment to examine the effect of human IFN-γ on the distance between the chains and to determine if the chains were associated prior to addition of ligand. This is accomplished by using FRET.
Construction of Vectors to Measure FRET in Cells and Transfections. As noted above, green and blue fluorescent proteins (GFP and BFP) were discovered and developed by a number of groups that enabled these fluorescent protein to be seen and localized in cells; and several groups have begun to use FRET to study the interactions of proteins in cells. In our studies, the IFN-γ receptor complex (FIG. 1) was used as the model system to evaluate the ability of FRET to provide insight into the structure of the receptor and to determine the molecular dynamics after attachment of the ligand IFN-γ to the receptor. […]

Molecule: IFN-γ: protein secreted by lymphocytes, specifically T-cells and NK-cells; ligand of the IFN-γ receptor complex
MHC class I antigen induction [1]: as effective as that of hamster IFN-γ
effect on CHO cells (CHO cells): no effect
change in FRET spectrum in the presence of IFN-γ [2]: no change in the spectrum

change in FRET spectrum in the presence of IFN-γ [3]: large change in the spectrum
effect on the fluorescence spectrum of the mismatched pair [4]: did not affect the spectrum
effect on the FRET of the matched receptor pair ([5]; IFN-γ 3500 units/ml added to medium, two-photon excitation at 760 nm, FIG. 8): major reduction in the FRET
FRET signal after treatment of cells with IFN-γ ([5]; single COS-1 cell expressing IFN-γR1 and IFN-γR2 fused to BFP and GFP, excited at 760 nm, FIGS. 12 and 13): almost completely abolished
B1: IFN-γ: protein secreted by lymphocytes, specifically T-cells and NK-cells; ligand of the IFN-γ receptor complex (protein, UniProt P01579 24-161, looked up)
Interferon gamma: QDPYVKEAENLKKYFNAGHSDVADNGTLFLGILKNWKEESDRKIMQSQIVSFYFKLFKNFKDDQSIQKSVETIKEDMNVKFFNSNKKKRDDFEKLTNYSVTDLNVQRKAIHELIQVMAELSPAAKTGKRKRSQMLFRG
